{
  "source": "patent US8703708",
  "about": "(CINCINNATI CHILDREN S HOSPITAL MEDICAL CENTER, dated 2014)",
  "key": {"[1]": {"target": "T1, Lrp6 (endogenous, in mouse kidney) (mouse, UniProt O88572 20-1613)", "T1 construct": "whole, on cells; Endogenous receptor in whole d5 post I/R kidney or kidney cortex; also called Lipoprotein receptor like protein 6", "T1 sequence (O88572 20-1613)": "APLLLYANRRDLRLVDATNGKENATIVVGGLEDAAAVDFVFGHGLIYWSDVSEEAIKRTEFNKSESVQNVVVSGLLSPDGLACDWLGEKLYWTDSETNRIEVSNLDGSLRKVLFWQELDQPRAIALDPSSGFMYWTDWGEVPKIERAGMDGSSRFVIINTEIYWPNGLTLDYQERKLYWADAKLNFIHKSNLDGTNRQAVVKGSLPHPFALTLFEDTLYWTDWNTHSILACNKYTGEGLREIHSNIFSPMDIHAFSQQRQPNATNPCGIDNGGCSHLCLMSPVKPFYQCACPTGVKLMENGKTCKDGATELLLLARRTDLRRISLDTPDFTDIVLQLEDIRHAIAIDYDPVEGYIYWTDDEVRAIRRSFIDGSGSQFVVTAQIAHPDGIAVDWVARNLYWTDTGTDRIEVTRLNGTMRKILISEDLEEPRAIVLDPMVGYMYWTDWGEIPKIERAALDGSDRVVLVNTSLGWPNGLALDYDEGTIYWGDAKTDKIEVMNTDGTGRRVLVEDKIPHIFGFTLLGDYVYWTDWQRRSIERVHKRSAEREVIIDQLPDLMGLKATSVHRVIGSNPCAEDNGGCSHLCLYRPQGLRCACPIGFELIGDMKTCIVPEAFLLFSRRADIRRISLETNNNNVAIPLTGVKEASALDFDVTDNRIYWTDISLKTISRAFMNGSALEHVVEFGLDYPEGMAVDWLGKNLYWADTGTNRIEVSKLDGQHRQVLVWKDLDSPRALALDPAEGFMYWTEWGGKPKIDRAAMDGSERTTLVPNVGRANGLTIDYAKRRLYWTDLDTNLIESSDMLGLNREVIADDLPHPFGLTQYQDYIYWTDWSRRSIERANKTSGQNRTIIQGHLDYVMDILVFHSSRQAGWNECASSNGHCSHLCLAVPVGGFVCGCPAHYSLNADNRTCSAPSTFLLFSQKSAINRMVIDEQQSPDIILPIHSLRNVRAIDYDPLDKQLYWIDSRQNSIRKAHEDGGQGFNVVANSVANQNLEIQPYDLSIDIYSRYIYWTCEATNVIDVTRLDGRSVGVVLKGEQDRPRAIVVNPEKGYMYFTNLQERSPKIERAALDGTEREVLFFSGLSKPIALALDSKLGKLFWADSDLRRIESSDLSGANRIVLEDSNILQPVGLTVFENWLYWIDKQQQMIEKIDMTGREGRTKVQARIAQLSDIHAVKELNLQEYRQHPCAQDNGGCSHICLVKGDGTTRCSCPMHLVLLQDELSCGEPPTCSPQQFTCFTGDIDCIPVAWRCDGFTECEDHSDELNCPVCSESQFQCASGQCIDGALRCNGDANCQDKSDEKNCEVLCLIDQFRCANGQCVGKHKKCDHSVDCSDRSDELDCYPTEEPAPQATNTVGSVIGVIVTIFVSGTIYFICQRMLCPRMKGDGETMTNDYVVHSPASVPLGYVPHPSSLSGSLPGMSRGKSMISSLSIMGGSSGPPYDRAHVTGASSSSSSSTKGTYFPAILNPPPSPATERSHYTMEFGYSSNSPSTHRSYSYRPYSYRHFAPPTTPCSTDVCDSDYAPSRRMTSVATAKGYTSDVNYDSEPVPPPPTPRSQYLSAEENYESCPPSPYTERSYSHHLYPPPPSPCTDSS", "assay": "Western blot for S-tag proteins in whole d5 post I/R kidney from mice treated with Dkk2-C2", "method": "(§1) For detection of Dkk2-C2, western blots of 50μg of whole kidney protein lysate per lane were incubated with anti-S-tag antibodies (1:500, BD Biosciences) followed by secondary HRP conjugated antibodies. After detection and stripping blots were re-detected with anti-beta-actin (1:1000, Santa Cruz Biotechnology). The purified recombinant Dkk2C contained only one single band in SDS-PAGE.\n(§2) This C2 recombinant form of Dkk2 was administered from d0 to WT mice that were uninjured or which had kidney injury. Kidneys were harvested on day 2 and day 7 after injury and assessed quantitatively for injury. […] After detection and stripping blots were re-detected with anti-beta-actin (1:1000, Santa Cruz Biotechnology). […] When systemic delivery of Dkk2 was delayed until after peak injury at d1, it was nevertheless detectable in the kidney (FIG. 5G) and it retained the capacity to improve kidney function as assessed by plasma creatinine levels (FIG. 5D). […] To understand whether Dkk2 was functioning to augment the canonical pathway, Wnt signalling in kidney cortex of d5 post I/R mice was assessed by detection of phosphorylated Lrp6 since canonical signalling requires phosphorylation of this co-receptor (Zeng et al., Nature 438(7069):873-877 (in eng) (2005)) (FIG. 5E). pLrp6 was not detected in healthy adult kidney cortex (FIG. 1G) but was robustly detected in kidney cortex following injury."}, "[2]": {"target": "T2, Lrp5 (endogenous, in mouse kidney) (mouse, UniProt Q91VN0 31-1614)", "T2 construct": "whole, on cells; Endogenous receptor in whole d5 post I/R kidney; The complex was detected in kidney lysate by Western blot; also called Lipoprotein receptor like protein 5", "T2 sequence (Q91VN0 31-1614)": "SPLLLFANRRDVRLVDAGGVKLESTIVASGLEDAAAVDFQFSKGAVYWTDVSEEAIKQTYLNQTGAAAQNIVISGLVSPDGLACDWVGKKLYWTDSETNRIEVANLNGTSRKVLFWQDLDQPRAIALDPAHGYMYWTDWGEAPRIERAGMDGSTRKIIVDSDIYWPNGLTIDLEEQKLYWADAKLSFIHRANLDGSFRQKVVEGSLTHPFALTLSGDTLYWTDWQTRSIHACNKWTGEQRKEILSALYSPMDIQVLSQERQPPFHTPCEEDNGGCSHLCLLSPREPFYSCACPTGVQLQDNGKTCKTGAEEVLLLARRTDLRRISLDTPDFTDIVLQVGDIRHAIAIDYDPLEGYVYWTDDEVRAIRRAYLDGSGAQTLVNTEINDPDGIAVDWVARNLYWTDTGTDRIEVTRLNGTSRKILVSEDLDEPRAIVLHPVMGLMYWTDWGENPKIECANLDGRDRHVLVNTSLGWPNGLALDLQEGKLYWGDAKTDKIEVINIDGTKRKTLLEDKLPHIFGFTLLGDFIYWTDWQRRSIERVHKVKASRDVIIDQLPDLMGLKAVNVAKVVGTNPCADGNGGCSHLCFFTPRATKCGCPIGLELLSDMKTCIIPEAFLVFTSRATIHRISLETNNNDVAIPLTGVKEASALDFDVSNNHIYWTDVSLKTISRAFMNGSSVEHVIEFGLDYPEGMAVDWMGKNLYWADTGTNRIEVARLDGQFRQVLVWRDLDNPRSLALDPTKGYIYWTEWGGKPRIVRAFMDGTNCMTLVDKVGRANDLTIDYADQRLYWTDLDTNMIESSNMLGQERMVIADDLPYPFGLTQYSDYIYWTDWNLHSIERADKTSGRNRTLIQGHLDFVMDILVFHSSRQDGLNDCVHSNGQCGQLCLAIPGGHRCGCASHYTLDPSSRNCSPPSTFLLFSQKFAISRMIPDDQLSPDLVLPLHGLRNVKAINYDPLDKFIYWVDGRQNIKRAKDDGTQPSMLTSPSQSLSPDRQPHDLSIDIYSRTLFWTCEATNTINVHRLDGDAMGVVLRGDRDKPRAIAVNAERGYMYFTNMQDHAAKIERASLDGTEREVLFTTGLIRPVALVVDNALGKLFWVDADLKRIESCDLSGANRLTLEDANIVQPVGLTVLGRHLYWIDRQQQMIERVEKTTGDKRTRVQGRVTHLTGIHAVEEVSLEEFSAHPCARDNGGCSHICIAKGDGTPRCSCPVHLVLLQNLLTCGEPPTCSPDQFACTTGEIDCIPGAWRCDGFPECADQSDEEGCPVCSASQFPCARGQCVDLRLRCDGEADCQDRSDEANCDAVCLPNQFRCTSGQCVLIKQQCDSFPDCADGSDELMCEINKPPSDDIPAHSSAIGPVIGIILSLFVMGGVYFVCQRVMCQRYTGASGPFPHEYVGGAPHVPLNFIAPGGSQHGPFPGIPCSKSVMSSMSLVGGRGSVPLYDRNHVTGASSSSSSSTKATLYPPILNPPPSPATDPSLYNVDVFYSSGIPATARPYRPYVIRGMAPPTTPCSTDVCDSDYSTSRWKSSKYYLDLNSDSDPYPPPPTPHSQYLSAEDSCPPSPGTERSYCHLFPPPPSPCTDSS", "assay": "Western blot for S-tag proteins in whole d5 post I/R kidney from mice treated with Dkk2-C2", "method": "as §1, §2"}},
  "data": [
    {"binder": "recombinant protein Dkk2C (amino acids Met172-Ile259 of mouse Dkk2) with N-terminal S tag and thrombin cleavage site (ligand, Expressed in E. coli; Detected in kidney lysate with anti-S-tag antibodies, so the S tag was still on the protein; also called Dkk2-C2; D2C2; not shown: N-terminal S tag; thrombin cleavage site between the S tag and Dkk2C) MPHIKGHEGDPCLRSSDCIDGFCCARHFWTKICKPVLHQGEVCTKQRKKGSHGLEIFQRCDCAKGLSCKVWKDATYSSKARLHVCQKI", "values": [
      {"measurement": "binding result", "setting": "[1]", "value": "binds"},
      {"measurement": "binding result", "setting": "[2]", "value": "binds"}
    ]}
  ]
}
